From patent US20040002144
Entries after “also recorded” stand apart in the source; their conditions may differ.

T1: ovalbumin, P01012
T1 chain: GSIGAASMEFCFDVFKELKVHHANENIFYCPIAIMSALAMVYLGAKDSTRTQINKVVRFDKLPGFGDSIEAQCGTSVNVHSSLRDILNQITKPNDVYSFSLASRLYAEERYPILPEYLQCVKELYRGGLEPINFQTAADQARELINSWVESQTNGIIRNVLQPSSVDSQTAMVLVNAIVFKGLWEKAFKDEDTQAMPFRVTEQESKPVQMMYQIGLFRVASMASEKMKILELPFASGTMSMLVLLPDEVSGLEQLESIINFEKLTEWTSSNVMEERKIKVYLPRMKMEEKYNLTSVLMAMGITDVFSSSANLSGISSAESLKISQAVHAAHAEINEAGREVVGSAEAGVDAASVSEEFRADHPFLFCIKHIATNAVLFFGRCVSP


Experiments:
ovalbumin, P01012 = target: T1, ovalbumin, P01012
[1] = target: insulin A chain wherein cysteine residue had been oxidized (Sigma)
insulin A chain wherein cysteine residue had been oxidized (Sigma), sequence (chain, as listed by the source): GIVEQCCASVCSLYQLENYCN

| Protein | 15N-labeling rate of the ovalbumin glutamine residue giving signal "a" (ovalbumin, P01012) | groups of 1H-15N HSQC signals of 15N-labeled ovalbumin glutamine residues after 6 hours (ovalbumin, P01012) | also measured |
| --- | --- | --- | --- |
| S2Y mutant MTG (Ser2 replaced with Tyr, in Met type MTG) (protein) MDYDDRVTPPAEPLDRMPDPYRPSYGRAETVVNNYIRKWQQVYSHRDGRKQQMTEEQREWLSYGCVGVTWVNSGQYPTNRLAFASFDEDRFKNELKNGRPRSGETRAEFEGRVAKESFDEEKGFQRAREVASVMNRALENAHDESAYLDNLKKELANGNDALRNEDARSPFYSALRNTPSFKERNGGNHDPSRMKAVIYSKHFWSGQDRSSSADKRKYGDPDAFRPAPGTGLVDMSRDRNIPRSPTSPGEGFVNFDYGWFGAQTEADADKTVWTHGNHYHAPNGSLGAMHVYESKFRNWSEGYSDFDRGAYVITFIPKSWNTAPDKVKQGWP | the order of the 15N-labeling rate was S2Y<S2D<wild type<S2R |  |  |
| S2D mutant MTG (Ser2 replaced with Asp, in Met type MTG) (protein) MDDDDRVTPPAEPLDRMPDPYRPSYGRAETVVNNYIRKWQQVYSHRDGRKQQMTEEQREWLSYGCVGVTWVNSGQYPTNRLAFASFDEDRFKNELKNGRPRSGETRAEFEGRVAKESFDEEKGFQRAREVASVMNRALENAHDESAYLDNLKKELANGNDALRNEDARSPFYSALRNTPSFKERNGGNHDPSRMKAVIYSKHFWSGQDRSSSADKRKYGDPDAFRPAPGTGLVDMSRDRNIPRSPTSPGEGFVNFDYGWFGAQTEADADKTVWTHGNHYHAPNGSLGAMHVYESKFRNWSEGYSDFDRGAYVITFIPKSWNTAPDKVKQGWP | the order of the 15N-labeling rate was S2Y<S2D<wild type<S2R |  |  |
| S2R mutant MTG (Ser2 replaced with Arg, in Met type MTG) (protein) MDRDDRVTPPAEPLDRMPDPYRPSYGRAETVVNNYIRKWQQVYSHRDGRKQQMTEEQREWLSYGCVGVTWVNSGQYPTNRLAFASFDEDRFKNELKNGRPRSGETRAEFEGRVAKESFDEEKGFQRAREVASVMNRALENAHDESAYLDNLKKELANGNDALRNEDARSPFYSALRNTPSFKERNGGNHDPSRMKAVIYSKHFWSGQDRSSSADKRKYGDPDAFRPAPGTGLVDMSRDRNIPRSPTSPGEGFVNFDYGWFGAQTEADADKTVWTHGNHYHAPNGSLGAMHVYESKFRNWSEGYSDFDRGAYVITFIPKSWNTAPDKVKQGWP | the order of the 15N-labeling rate was S2Y<S2D<wild type<S2R |  |  |
| transglutaminase derived from Streptoverticillium mobaraense (MTG), wild type (protein) DSDDRVTPPAEPLDRMPDPYRPSYGRAETVVNNYIRKWQQVYSHRDGRKQQMTEEQREWLSYGCVGVTWVNSGQYPTNRLAFASFDEDRFKNELKNGRPRSGETRAEFEGRVAKESFDEEKGFQRAREVASVMNRALENAHDESAYLDNLKKELANGNDALRNEDARSPFYSALRNTPSFKERNGGNHDPSRMKAVIYSKHFWSGQDRSSSADKRKYGDPDAFRPAPGTGLVDMSRDRNIPRSPTSPGEGFVNFDYGWFGAQTEADADKTVWTHGNHYHAPNGSLGAMHVYESKFRNWSEGYSDFDRGAYVITFIPKSWNTAPDKVKQGWP | the order of the 15N-labeling rate was S2Y<S2D<wild type<S2R | 6 groups of the signals were found when the wild type was used | 15N-labeled residue identified by mass spectrometry [1]: in the two glutamine residues in insulin A chain, the 15th glutamine residue was the substrate of MTG |
| Sg7 mutant MTG (residue Nos. 278 to 287 replaced with 3 glycine residues) (protein) DSDDRVTPPAEPLDRMPDPYRPSYGRAETVVNNYIRKWQQVYSHRDGRKQQMTEEQREWLSYGCVGVTWVNSGQYPTNRLAFASFDEDRFKNELKNGRPRSGETRAEFEGRVAKESFDEEKGFQRAREVASVMNRALENAHDESAYLDNLKKELANGNDALRNEDARSPFYSALRNTPSFKERNGGNHDPSRMKAVIYSKHFWSGQDRSSSADKRKYGDPDAFRPAPGTGLVDMSRDRNIPRSPTSPGEGFVNFDYGWFGAQTEADADKTVWTHGNHGGGMHVYESKFRNWSEGYSDFDRGAYVITFIPKSWNTAPDKVKQGWP |  | only 3 groups and 2 groups of the signals were found when Sg4 and Sg7 were used, respectively |  |
| del 1-3 mutant MTG (residue Nos. 1 to 3 removed) (protein) DRVTPPAEPLDRMPDPYRPSYGRAETVVNNYIRKWQQVYSHRDGRKQQMTEEQREWLSYGCVGVTWVNSGQYPTNRLAFASFDEDRFKNELKNGRPRSGETRAEFEGRVAKESFDEEKGFQRAREVASVMNRALENAHDESAYLDNLKKELANGNDALRNEDARSPFYSALRNTPSFKERNGGNHDPSRMKAVIYSKHFWSGQDRSSSADKRKYGDPDAFRPAPGTGLVDMSRDRNIPRSPTSPGEGFVNFDYGWFGAQTEADADKTVWTHGNHYHAPNGSLGAMHVYESKFRNWSEGYSDFDRGAYVITFIPKSWNTAPDKVKQGWP |  |  | reactivity to the ovalbumin glutamine residue giving signal "a" (1H-15N HSQC peak intensity vs. reaction time) (ovalbumin, P01012): the reactivity of each of del 1-2 and del 1-3 was improved as compared with that of the wild type; also recorded: the reactivity of del 1-3 was even much higher than that of Ser type or S2R |
| del 1-2 mutant MTG (residue Nos. 1 and 2 removed) (protein) DDRVTPPAEPLDRMPDPYRPSYGRAETVVNNYIRKWQQVYSHRDGRKQQMTEEQREWLSYGCVGVTWVNSGQYPTNRLAFASFDEDRFKNELKNGRPRSGETRAEFEGRVAKESFDEEKGFQRAREVASVMNRALENAHDESAYLDNLKKELANGNDALRNEDARSPFYSALRNTPSFKERNGGNHDPSRMKAVIYSKHFWSGQDRSSSADKRKYGDPDAFRPAPGTGLVDMSRDRNIPRSPTSPGEGFVNFDYGWFGAQTEADADKTVWTHGNHYHAPNGSLGAMHVYESKFRNWSEGYSDFDRGAYVITFIPKSWNTAPDKVKQGWP |  |  | reactivity to the ovalbumin glutamine residue giving signal "a" (1H-15N HSQC peak intensity vs. reaction time) (ovalbumin, P01012): the reactivity of each of del 1-2 and del 1-3 was improved as compared with that of the wild type |
| Sg4 mutant MTG (residue Nos. 241 to 252 replaced with 3 glycine residues) (protein) DSDDRVTPPAEPLDRMPDPYRPSYGRAETVVNNYIRKWQQVYSHRDGRKQQMTEEQREWLSYGCVGVTWVNSGQYPTNRLAFASFDEDRFKNELKNGRPRSGETRAEFEGRVAKESFDEEKGFQRAREVASVMNRALENAHDESAYLDNLKKELANGNDALRNEDARSPFYSALRNTPSFKERNGGNHDPSRMKAVIYSKHFWSGQDRSSSADKRKYGDPDAFRPAPGTGLVDMSRDRNIGGGNFDYGWFGAQTEADADKTVWTHGNHYHAPNGSLGAMHVYESKFRNWSEGYSDFDRGAYVITFIPKSWNTAPDKVKQGWP |  | only 3 groups and 2 groups of the signals were found when Sg4 and Sg7 were used, respectively |  |
| Ser-type MTG (mutant in which Asp1 has been removed, starts with Ser2) (protein) SDDRVTPPAEPLDRMPDPYRPSYGRAETVVNNYIRKWQQVYSHRDGRKQQMTEEQREWLSYGCVGVTWVNSGQYPTNRLAFASFDEDRFKNELKNGRPRSGETRAEFEGRVAKESFDEEKGFQRAREVASVMNRALENAHDESAYLDNLKKELANGNDALRNEDARSPFYSALRNTPSFKERNGGNHDPSRMKAVIYSKHFWSGQDRSSSADKRKYGDPDAFRPAPGTGLVDMSRDRNIPRSPTSPGEGFVNFDYGWFGAQTEADADKTVWTHGNHYHAPNGSLGAMHVYESKFRNWSEGYSDFDRGAYVITFIPKSWNTAPDKVKQGWP |  |  | 15N-labeling rate of the ovalbumin glutamine residue giving signal "a" (1H-15N HSQC peak intensity vs. reaction time) (ovalbumin, P01012): more rapidly 15N-labeled when it was reacted with the Ser-type rather than when reacted with the wild type |
